Results from paper PMC11933058 (Frontiers in Immunology, 2025).
One block for each binder: values may come before it.

Key:
[1] = molecular target: T1, TIT-H52H5 Human TIGIT Protein, His Tag, active dimer (ACROBiosystems) (Homo sapiens, UniProt Q495A1); experiment: BLI; Octet RED96, antibody loaded from supernatant on anti-human Fc (AHC) biosensors, recombinant TIM3 or TIGIT in solution; PBS, 30°C, 1000 rpm; association 300 sec, dissociation 300 sec; global 1:1 fit; details: one partner purified
T1 construct: TIGIT, human, recombinant extracellular domain; the methods describe the His-tagged protein; For BLI only 'recombinant TIGIT' is said; also called VSIG9; T-cell immunoreceptor with Ig and ITIM domains; source: bought: ACROBiosystems

[2] = molecular target: T1, TIT-H52H5 Human TIGIT Protein, His Tag, …; experiment: AlphaScreen or HTRF; dose-response of antibodies (human IgG1 in concentrated, dosed HEK293 supernatant) on recombinant TIM3 or TIGIT at 0.6 ng/µl; 1 h incubation, then donor and acceptor sensors 1 h; EC50 from a fit in GraphPad Prism; details: one partner purified
[3] = molecular target: T2, recombinant human TIM3 extracellular domain, 6-His C-ter-tagged (ACROBiosystems) (Homo sapiens, UniProt Q8TDQ0); experiment: BLI; Octet RED96, antibody loaded from supernatant on anti-human Fc (AHC) biosensors, recombinant TIM3 or TIGIT in solution; PBS, 30°C, 1000 rpm; association 300 sec, dissociation 300 sec; global 1:1 fit; details: one partner purified
T2 construct: TIM3 (HAVCR2), human, recombinant extracellular domain; the methods describe the His-tagged protein; For BLI only 'recombinant TIM3' is said; also called HAVCR-2; HAVCR2; source: bought: ACROBiosystems; not shown: His6, C-terminal, kept

[4] = molecular target: T2, recombinant human TIM3 extracellular …; experiment: AlphaScreen or HTRF; dose-response of antibodies (human IgG1 in concentrated, dosed HEK293 supernatant) on recombinant TIM3 or TIGIT at 0.6 ng/µl; 1 h incubation, then donor and acceptor sensors 1 h; EC50 from a fit in GraphPad Prism; details: one partner purified
[5] = molecular target: T3, SIRPα with C-terminal Flag tag, overexpressed in HEK293 cells (UniProt P78324); experiment: flow cytometry on cells; HEK293 transiently transfected with the Flag-tagged target, fixed and permeabilized, incubated with raw antibody supernatants 1 h at room temperature; APC anti-human IgG and PE anti-Flag; % APC+PE+ cells; details: partners not purified
T3 construct: SIRPα, transmembrane target, synthetic gene; source: HEK293, transiently transfected (pcDNA3.1), cells fixed and permeabilized; not shown: Flag, C-terminal, kept

T1 sequence (Q495A1 22-141): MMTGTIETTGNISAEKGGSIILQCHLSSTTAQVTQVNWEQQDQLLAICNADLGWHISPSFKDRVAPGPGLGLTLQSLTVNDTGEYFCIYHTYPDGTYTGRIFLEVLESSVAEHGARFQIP

binding result [5]: binds
B4: CC-95251, human IgG1 format (antibody, V domains shown)
VH: QVQLVQSGAEVKKPGASVKVSCKASGYTFRGYGISWVRQAPGQGLEWMGWISAYGGETNYAQKLQGRVTMTTDTSTSTAYMELRSLRSDDTAVYYCAREAGSSWYDFDLWGRGTLVTVSS
VL: DIQMTQSPSSVSASVGDRVTITCRASQGISSWLAWYQQKPGKAPKLLIYAASNLQSGVPSRFSGSGSGTDFTLTISSLQPEDFATYYCQQGASFPITFGGGTKVEIK
notes: constant domains of unmodified human IgG1 heavy chain, from the plasmid pTrioz-hIgG1 (InvivoGen); constant domain of the light chain as encoded by pTrioz-hIgG1; VH and VL by gene synthesis; also called 7ST5; source: HEK293, transiently transfected, supernatant

Kd [1]: 0.681 nM
koff [1]: 0.000279 s⁻¹
kon [1]: 410000 M⁻¹ s⁻¹
EC50 [2]: 3.15 nM
B5: Tiragolumab, human IgG1 format (antibody, V domains shown)
VH: EVQLQQSGPGLVKPSQTLSLTCAISGDSVSSNSAAWNWIRQSPSRGLEWLGKTYYRFKWYSDYAVSVKGRITINPDTSKNQFSLQLNSVTPEDTAVFYCTRESTTYDLLAGPFDYWGQGTLVTVSS
VL: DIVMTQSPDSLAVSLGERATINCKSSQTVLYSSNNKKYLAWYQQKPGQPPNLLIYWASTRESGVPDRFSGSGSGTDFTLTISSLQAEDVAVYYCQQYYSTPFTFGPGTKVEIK
notes: VH of Tiragolumab; constant domains of unmodified human IgG1 heavy chain, from the plasmid pTrioz-hIgG1 (InvivoGen); VL of Tiragolumab; constant domain of the light chain as encoded by pTrioz-hIgG1; IgG1; VH and VL by gene synthesis; also called 8JEO; source: HEK293, transiently transfected, supernatant (concentrated)

Further lines, the binder ahead of its results:

B1: MG1131, human IgG1 format (antibody, V domains shown)
VH: EVQLVQSGAEVKKPGASVKVSCKASGYTFTSYYMHWVRQAPGQGLEWMGIINPSGGSTSYAQKFQGRVTMTRDTSTSTVYMELSSLRSEDTAVYYCASRSGSGWFGALDYWGQGTLVTVSS
VL: not shown
notes: VH of MG1131; constant domains of unmodified human IgG1 heavy chain, from the plasmid pTrioz-hIgG1 (InvivoGen); VL of MG1131; constant domain of the light chain as encoded by pTrioz-hIgG1; IgG1; VH and VL by gene synthesis; also called 7VYT; source: HEK293, transiently transfected, supernatant (concentrated)
Kd [1]: 0.189 nM
koff [1]: 7.43e-05 s⁻¹
kon [1]: 393000 M⁻¹ s⁻¹
EC50 [2]: 0.489 nM

B2: Tim3.18, human IgG1 format (antibody, V domains shown)
VH: QLQLQESGPGLVKPSETLSLTCTVSGGSISSRSYYWGWIRQPPGKGLEWIGSIYYSGFTYYQPSLKSRVTISVDTSKNQFSLKLSSVTAADTAVYYCATGGPYGDYAHWFEPWGQGTLVTVSS
VL: not shown
notes: VH of Tim3.18; constant domains of unmodified human IgG1 heavy chain, from the plasmid pTrioz-hIgG1 (InvivoGen); VL of Tim3.18; constant domain of the light chain as encoded by pTrioz-hIgG1; IgG1; VH and VL by gene synthesis; also called 7KQL; source: HEK293, transiently transfected, supernatant (concentrated); also a large batch produced and purified by SinoBiological
Kd [3]: 1.01 nM
koff [3]: 0.000219 s⁻¹
kon [3]: 216000 M⁻¹ s⁻¹
EC50 [4]: 0.15 nM

B3: M6903, human IgG1 format (antibody, V domains shown)
VH: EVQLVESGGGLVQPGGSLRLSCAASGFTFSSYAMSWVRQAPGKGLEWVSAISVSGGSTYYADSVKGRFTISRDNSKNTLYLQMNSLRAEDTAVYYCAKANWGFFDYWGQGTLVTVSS
VL: QSALTQPRSVSGSPGQSVTISCTGTSSDVGGYNYVSWYQQHPGKAPKLMIYDVSKRPSGVPDRFSGSKSGNTASLTISGLQAEDEADYYCSSYADSVVFGGGTKVTVL
notes: VH of M6903; constant domains of unmodified human IgG1 heavy chain, from the plasmid pTrioz-hIgG1 (InvivoGen); VL of M6903; constant domain of the light chain as encoded by pTrioz-hIgG1; IgG1; VH and VL by gene synthesis; also called 6TXZ; source: HEK293, transiently transfected, supernatant (concentrated); also a large batch produced and purified by SinoBiological
Kd [3]: 0.2 nM
koff [3]: 3.06e-05 s⁻¹
kon [3]: 153000 M⁻¹ s⁻¹
EC50 [4]: 0.193 nM
